From US20120021972A1 (CADILA HEALTHCARE, published 2012)
Starred links: 1 amine or outer side, 2 acyl side, 3 side chain; linkers in the order of their positions; H or OH if unused. Non-standard residues stand in square brackets, D forms with d. No end group written: not given here. *: point of attachment. NMe2F‑APPA = N-methyl-2-amino-5-(2-fluorophenyl)pentanoic acid, CN([C@@H](CCCc1ccccc1F)C(=O)[*:2])[*:1]; 2,4‑diF‑APPA = 2-amino-5-(2,4-difluorophenyl)pentanoic acid, O=C([C@H](CCCc1ccc(F)cc1F)N[*:1])[*:2]; AMCB = 2-amino-5-(4-chloro-2-methylphenyl)pentanoic acid, Cc1cc(Cl)ccc1CCC[C@H](N[*:1])C(=O)[*:2]; ACPP = 2-amino-5-(3-chlorophenyl)pentanoic acid, O=C([C@H](CCCc1cccc(Cl)c1)N[*:1])[*:2]; 2CF3,4F‑APPA = 2-amino-5-(4-fluoro-2-(trifluoromethyl)phenyl)pentanoic acid; 2F,4CF3‑APPA = 2-amino-5-(2-fluoro-4-(trifluoromethyl)phenyl)pentanoic acid; 2Cl,4OMe‑APPA = 2-amino-5-(2-chloro-4-methoxyphenyl)pentanoic acid; 2CF3‑APPA = 2-amino-5-(2-(trifluoromethyl)phenyl)pentanoic acid; Bip(2'-Et-4'-OMe) = CCc1cc(OC)ccc1-c1ccc(C[C@H](N)C(=O)O)cc1; Leu(5,5,5,5',5',5'-F6) = N[C@@H](CC(C(F)(F)F)C(F)(F)F)C(=O)O; Nva(5-(3,5-Me2Ph)) = Cc1cc(C)cc(CCC[C@H](N)C(=O)O)c1; 2Cl‑APPA = 2-amino-5-(2-chlorophenyl)pentanoic acid; 2F‑APPA = 2-amino-5-(2-fluorophenyl)pentanoic acid; αMePhe(2-F) = C[C@](N)(Cc1ccccc1F)C(=O)O; Phe(2-F) = N[C@@H](Cc1ccccc1F)C(=O)O; NMeBip(OMe) = N-methylated Bip(OMe); hhPhe = N[C@@H](CCCc1ccccc1)C(=O)O; αMeF = C[C@](N)(Cc1ccccc1)C(=O)O; NMeD = CN[C@@H](CC(=O)O)C(=O)O; aThr = C[C@H](O)[C@H](N)C(=O)O; NMeAPPA = not defined here; CNB = not defined here; Aib = CC(C)(N)C(=O)O; Moc = COC(=O)*

Columns and labels:
[1] = biological target: human GLP-1 receptor (human, UniProt P43220 24-463); experiment: cell-based or functional assay
[2] = biological target: human glucagon receptor (human, UniProt P47871 26-477); experiment: cell-based or functional assay

Chain of human GLP-1 receptor (P43220 24-463): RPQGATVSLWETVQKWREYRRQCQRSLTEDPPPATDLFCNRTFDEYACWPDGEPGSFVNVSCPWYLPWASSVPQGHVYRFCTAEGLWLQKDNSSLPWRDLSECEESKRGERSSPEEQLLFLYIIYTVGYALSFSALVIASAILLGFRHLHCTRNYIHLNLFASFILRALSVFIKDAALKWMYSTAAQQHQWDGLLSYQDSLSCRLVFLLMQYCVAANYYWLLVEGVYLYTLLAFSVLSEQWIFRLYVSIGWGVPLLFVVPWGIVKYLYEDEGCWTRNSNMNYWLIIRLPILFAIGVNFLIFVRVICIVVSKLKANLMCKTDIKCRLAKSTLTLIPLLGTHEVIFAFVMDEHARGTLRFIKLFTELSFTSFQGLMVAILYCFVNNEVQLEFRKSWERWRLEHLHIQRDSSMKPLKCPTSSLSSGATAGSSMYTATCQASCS

Binder | cAMP release, % activity, 1 nM [1] | cAMP release, % activity, 10 nM [1] | cAMP release, % activity, 100 nM [1] | cAMP release, % activity, 1 µM [1] | cAMP release, % activity, 10 µM [1] | inhibition of cAMP production, 1 nM [2] | inhibition of cAMP production, 10 nM [2] | inhibition of cAMP production, 100 nM [2] | inhibition of cAMP production, 1 µM [2] | inhibition of cAMP production, 10 µM [2]
H[Aib][CNB]GTFTSD[Bip(2'-Et-4'-OMe)][2CF3,4F‑APPA] (reading uncertain) [Seq. ID. No. 80: H-Aib-(CNB)-GTFTSD-Bip(OMe)-(2CF3, 4F-APPA)] | 66% | 97% | 99% | 99% | 99% | – | – | – | – | –
H[Aib][CNB]GTFTSD[Bip(2'-Et-4'-OMe)][2F,4CF3‑APPA] (reading uncertain) [Seq. ID. No. 81: H-Aib-(CNB)-GTFTSD-Bip(OMe)-(2F, 4CF3-APPA)] | 69% | 98% | 99% | 99% | 99% | – | – | – | – | –
H[Aib][CNB]GTFTSD[Bip(2'-Et-4'-OMe)][2Cl‑APPA] (reading uncertain) [Seq. ID. No. 82: H-Aib-(CNB)-GTFTSD-Bip(OMe)-(2Cl-APPA)] | 78% | 99% | 99% | 99% | 99% | – | – | – | – | –
HAQGTFTSD[Bip(2'-Et-4'-OMe)][AMCB] [Seq. ID. No. 16: HAQGTFTSD-Bip(OMe)-(AMCB)] | 99% | 99% | 99% | 99% | 99% | – | – | – | – | –
H[Aib][CNB]GTFTSD[Bip(2'-Et-4'-OMe)][AMCB] (reading uncertain) [Seq. ID. No. 32: H-Aib-(CNB)-GTFTSD-Bip(OMe)-(AMCB)] | 39% | 80% | 88% | 96% | 99% | – | – | – | – | –
H[Aib]QGT[αMePhe(2-F)]TSD[Bip(2'-Et-4'-OMe)][ACPP] [Seq. ID. No. 39: H-Aib-QGT-(α-Me-2F-Phe)-TSD-Bip(OMe)-(ACPP)] | 40% | 81% | 87% | 95% | 98% | – | – | – | – | –
H[Aib]QGT[Phe(2-F)]TSD[Bip(2'-Et-4'-OMe)][Nva(5-(3,5-Me2Ph))] [Seq. ID. No. 42: H-Aib-QGT-(2F-Phe)-TSD-Bip(OMe)-(ADMP)] | 39% | 81% | 89% | 96% | 99% | – | – | – | – | –
HSQGTFTSD[Bip(2'-Et-4'-OMe)][2CF3‑APPA] [Seq. ID. No. 47: HSQGTFTSD-Bip(OMe)-(2CF3-APPA)] | 55% | 89% | 93% | 99% | 99% | – | – | – | – | –
HSQGTFTSD[Bip(2'-Et-4'-OMe)][2Cl‑APPA] [Seq. ID. No. 50: HSQGTFTSD-Bip(OMe)-(2Cl-APPA)] | 60% | 92% | 98% | 99% | 99% | – | – | – | – | –
H[Aib]QGTFTSD[Bip(2'-Et-4'-OMe)][2,4‑diF‑APPA] [Seq. ID. No. 62: H-Aib-QGTFTSD-Bip(OMe)-(2,4-diF-APPA)] | 38% | 78% | 86% | 95% | 98% | – | – | – | – | –
H[Aib]QGTFTSD[Bip(2'-Et-4'-OMe)][2Cl,4OMe‑APPA] [Seq. ID. No. 68: H-Aib-QGTFTSD-Bip(OMe)-(2Cl, 4OMe-APPA)] | 39% | 80% | 88% | 96% | 99% | – | – | – | – | –

Second part, the binder after the results:

cAMP release, % activity, 1 nM [1] | cAMP release, % activity, 10 nM [1] | cAMP release, % activity, 100 nM [1] | cAMP release, % activity, 1 µM [1] | cAMP release, % activity, 10 µM [1] | inhibition of cAMP production, 1 nM [2] | inhibition of cAMP production, 10 nM [2] | inhibition of cAMP production, 100 nM [2] | inhibition of cAMP production, 1 µM [2] | inhibition of cAMP production, 10 µM [2] | Binder
41% | 82% | 87% | 95% | 98% | – | – | – | – | – | Ac-H[Aib]QG[aThr][αMePhe(2-F)][aThr]SD[Bip(2'-Et-4'-OMe)][hhPhe] [Seq. ID. No. 101: CH3CO-H-Aib-QG-T(allo)-(α-Me-2F-Phe)-T(allo)-SD-Bip(OMe)-(APPA)]
51% | 86% | 91% | 99% | 99% | – | – | – | – | – | Moc-H[Aib]QG[aThr][αMePhe(2-F)][aThr]SD[NMeBip(OMe)][NMe2F‑APPA] [Seq. ID. No. 140: CH3OCO-H-Aib-QG-T(allo)-(α-Me-2F-Phe)-T(allo)-SD-((NMe)Bip(OMe))-((NMe)(2F-APPA))]
40% | 81% | 89% | 96% | 99% | – | – | – | – | – | H[Aib][CNB]G[aThr][αMePhe(2-F)][aThr]SD[Bip(2'-Et-4'-OMe)][2F‑APPA] (reading uncertain; also: thioamide bonds between residues 9-10 and 10-11) [Seq. ID. No. 180: H-Aib-(CNB)-G-T(allo)-(α-Me-2F-Phe)-T(allo)-SD-(C═S)-Bip(OMe)-(C═S)-(2F-APPA)]
46% | 85% | 90% | 99% | 99% | – | – | – | – | – | Ac-H[Aib]QG[aThr][αMePhe(2-F)][aThr]SD[Bip(2'-Et-4'-OMe)][hhPhe] (also: reduced (CH2) bond between 10 and 11) [Seq. ID. No. 185: CH3CO-H-Aib-QG-T(allo)-(α-Me-2F-Phe)-T(allo)-SD-Bip(OMe)-(CH2)-(APPA)]
41% | 82% | 87% | 95% | 98% | – | – | – | – | – | H[Aib][CNB]G[aThr][αMePhe(2-F)][aThr]SD[Bip(2'-Et-4'-OMe)][hhPhe] (reading uncertain; also: reduced (CH2) bond between 10 and 11) [Seq. ID. No. 190: H-Aib-(CNB)-G-T(allo)-(α-Me-2F-Phe)-T(allo)-SD-Bip(OMe)-(CH2)-(APPA)]
39% | 81% | 89% | 96% | 99% | – | – | – | – | – | Moc-H[Aib]QGT[αMePhe(2-F)]TSD[Bip(2'-Et-4'-OMe)][2F‑APPA] (also: reduced (CH2) bonds between 9-10 and 10-11) [Seq. ID. No. 196: CH3OCO-H-Aib-QGT-(α-Me-2F-Phe)-TSD-(CH2)-BiP(OMe)-(CH2)-(2F-APPA)]
82% | 87% | 92% | 99% | 99% | – | – | – | – | – | Moc-H[Aib]QG[aThr][αMePhe(2-F)][aThr]SD[Bip(2'-Et-4'-OMe)][hhPhe] (also: reduced (CH2) bonds between 9-10 and 10-11) [Seq. ID. No. 198: CH3OCO-H-Aib-QG-T(allo)-(α-Me-2F-Phe)-T(allo)-SD-(CH2)-Bip(OMe)-(CH2)-(APPA)]
86% | 99% | 99% | 99% | 99% | – | – | – | – | – | H[Aib]QG[aThr][αMePhe(2-F)][aThr]SD[Bip(2'-Et-4'-OMe)][2F‑APPA] (also: reduced (CH2) bonds Z9-Z10 and Z10-Z11) [Seq. ID. No. 203: H-Aib-QG-T(allo)-(α-Me-2F-Phe)-T(allo)-SD-(CH2)-Bip(OMe)-(CH2)-(2F-APPA)]
46% | 85% | 90% | 99% | 99% | – | – | – | – | – | Ac-H[Aib][Leu(5,5,5,5',5',5'-F6)]GT[αMePhe(2-F)]TSD[Bip(2'-Et-4'-OMe)][hhPhe] [Seq. ID. No. 210: CH3CO-H-Aib-(Hfl)-GT-(α-Me-2F-Phe)-TSD-Bip(OMe)-(APPA)]
93% | 99% | 99% | 99% | 99% | – | – | – | – | – | H[Aib][Leu(5,5,5,5',5',5'-F6)]G[aThr][αMePhe(2-F)][aThr]SD[Bip(2'-Et-4'-OMe)][2F‑APPA] (also: thioamide (C═S) bonds Z9-Z10 and Z10-Z11) [Seq. ID. No. 216: H-Aib-(Hfl)-G-T(allo)-(α-Me-2F-Phe)-T(allo)-SD-(C═S)-Bip(OMe)-(C═S)-(2F-APPA)]
93% | 99% | 99% | 99% | 99% | – | – | – | – | – | H[Aib][Leu(5,5,5,5',5',5'-F6)]G[aThr][αMePhe(2-F)][aThr]S[NMeD][NMeBip(OMe)][NMeAPPA] (reading uncertain) [Seq. ID. No. 220: H-Aib-(Hfl)-G-T(allo)-(α-Me-2F-Phe)-T(allo)-S-(NMe)D-((NMe)Bip(OMe))-((NMe)(APPA))]
99% | 99% | 99% | 99% | 99% | – | – | – | – | – | H[Aib][Leu(5,5,5,5',5',5'-F6)]GT[αMePhe(2-F)][aThr]SD[Bip(2'-Et-4'-OMe)][2F‑APPA] [Seq. ID. No. 224: H-Aib-(Hfl)-GT-(α-Me-2F-Phe)-T(allo)-SD-Bip(OMe)-(2F-APPA)]
99% | 99% | 99% | 99% | 99% | – | – | – | – | – | H[Aib][Leu(5,5,5,5',5',5'-F6)]GT[αMeF]TSD[Bip(2'-Et-4'-OMe)][hhPhe] [Seq. ID. No. 230: H-Aib-(Hfl)-GT-(α-Me-Phe)-TSD-Bip(OMe)-(APPA)]
99% | 99% | 99% | 99% | 99% | – | – | – | – | – | H[Aib][Leu(5,5,5,5',5',5'-F6)]GT[αMePhe(2-F)]TSD[Bip(2'-Et-4'-OMe)][Nva(5-(3,5-Me2Ph))] [Seq. ID. No. 235: H-Aib-(Hfl)-GT-(α-Me-2F-Phe)-TSD-Bip(OMe)-(ADMP)]
– | – | – | – | – | 5 pmol/ml/µg prt | 2 pmol/ml/µg prt | 0 pmol/ml/µg prt | 0 pmol/ml/µg prt | 0 pmol/ml/µg prt | H[Aib][Leu(5,5,5,5',5',5'-F6)]GT[αMePhe(2-F)][aThr]SD[Bip(2'-Et-4'-OMe)][hhPhe] [Seq. ID. No. 225: H-Aib-(Hfl)-GT-(α-Me-2F-Phe)-T(allo)-SD-Bip(OMe)-(APPA)]
